Results reported in publication doi:10.1101/2022.01.07.475460.

Target: Recombinant Xenopus laevis Chromosomal Passenger Complex (INCENP, Aurora B 33-368, Survivin-B, Borealin/Dasra-A) (Xenopus laevis) (UniProt Q6GPL3)
Assay: partitioning into condensates

Sequence of UniProt Q6GPL3 (Q6GPL3 whole entry, looked up, tested part not stated, one chain of several): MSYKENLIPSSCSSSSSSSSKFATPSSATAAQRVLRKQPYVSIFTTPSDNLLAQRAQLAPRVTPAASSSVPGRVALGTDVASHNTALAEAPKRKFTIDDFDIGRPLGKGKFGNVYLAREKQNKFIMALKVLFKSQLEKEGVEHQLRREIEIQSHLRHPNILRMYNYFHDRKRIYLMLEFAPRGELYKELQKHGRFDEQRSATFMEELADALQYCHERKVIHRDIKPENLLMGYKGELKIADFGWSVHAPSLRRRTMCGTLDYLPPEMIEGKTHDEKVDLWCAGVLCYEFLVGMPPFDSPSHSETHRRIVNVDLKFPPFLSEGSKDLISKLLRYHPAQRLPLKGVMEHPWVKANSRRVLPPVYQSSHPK

Substance: α/β-tubulin dimers (from UniProt Q6B856 1-445) (complex)
- enrichment in condensates (partition coefficient): 5 fold
